For data set [1], the system named is biotinyl-Phe-oxazolone. Kind of data set: self-aminoacylation, catalytic enhancement (BFO) (fold over background); higher = more active; k-Seq, kA / k0A0; sequences stand for … in GGGAAUGGAUCCACAUCUACGAAUUC…UUCACUGCAGACUUGACGAAGCUG
The method, boiled down:
(§1)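 Mutagenized RNA pools (0.43 μM; 21-nt variable region) were treated with 2–1250 μM of each biotinyl-aminoacyl-oxazolone. Conditions were 50 μL HEPES/NaCl/KCl/MgCl2/CaCl2 buffer, 5% acetonitrile, pH 6.9–7.0, room temperature, 90 minutes. Catalytic enhancement, the median kA relative to the uncatalyzed rate, was derived from streptavidin capture, qPCR and Illumina sequencing.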

Data set [2] relates to biotinyl-Ile-oxazolone. Description: self-aminoacylation, catalytic enhancement (BIO) (fold over background); higher = more active; k-Seq, kA / k0A0; sequences stand for … in GGGAAUGGAUCCACAUCUACGAAUUC…UUCACUGCAGACUUGACGAAGCUG
The method, boiled down: as §1

The test system of data set [3] is biotinyl-Met-oxazolone. Description: self-aminoacylation, catalytic enhancement (BMO) (fold over background); higher = more active; k-Seq, kA / k0A0; sequences stand for … in GGGAAUGGAUCCACAUCUACGAAUUC…UUCACUGCAGACUUGACGAAGCUG
In short, it runs like this:
as §1

Data set [4] relates to biotinyl-Val-oxazolone. Kind of data set: self-aminoacylation, catalytic enhancement (BVO) (fold over background); higher = more active; k-Seq, kA / k0A0; sequences stand for … in GGGAAUGGAUCCACAUCUACGAAUUC…UUCACUGCAGACUUGACGAAGCUG
In short, it runs like this: as §1

For data set [5], the system named is biotinyl-Leu-oxazolone. Description: self-aminoacylation, catalytic enhancement (BLO) (fold over background); higher = more active; k-Seq, kA / k0A0; sequences stand for … in GGGAAUGGAUCCACAUCUACGAAUUC…UUCACUGCAGACUUGACGAAGCUG
In short, it runs like this:
as §1

The test system of data set [6] is biotinyl-Trp-oxazolone. Kind of data set: self-aminoacylation, catalytic enhancement (BWO) (fold over background); higher = more active; k-Seq, kA / k0A0; sequences stand for … in GGGAAUGGAUCCACAUCUACGAAUUC…UUCACUGCAGACUUGACGAAGCUG
The method, boiled down: as §1

Fewer inactive variants are shown than the library holds.

Consider “CCACACCUCAAACAAUCGGUC [Fam1B.1 aminoacylation ribozyme variant]”, for which the self-aminoacylation in data set [1] came to 7.05; in data set [2], 1.24; in data set [3] it was 1.04; in data set [4] it was 1.13; in data set [5], 1.29; in data set [6] it was 4.47.

As to “CCACAGUUCAAUCAAUCGGUC [Fam1B.1 aminoacylation ribozyme variant]”, the self-aminoacylation in data set [1] was found to be 2.95; in data set [2] it was 0.806; in data set [3] it was 0.905; in data set [4], 0.96; in data set [5] it was 0.881; in data set [6], 2.08.

As for “AAGUUUGCUAAUUCUCGCAAG [Fam3.1 aminoacylation ribozyme variant]”, the self-aminoacylation in data set [1] was determined as 0.747; in data set [2], 1.26; in data set [3], 1.06; in data set [4], 0.999; in data set [5] it was 1.08; in data set [6], 2.64.

Consider “AUUCAACUAGGUCAUCGGCUG [Fam2.2 aminoacylation ribozyme variant]”, for which the self-aminoacylation came to 5.81 in data set [1]; 1.57 in data set [2]; 1.91 in data set [3]; 1.75 in data set [4]; 1.46 in data set [5]; 1.45 in data set [6].

Turning to “AAGUUUCCUAAUAUUCGCAAG [Fam3.1 aminoacylation ribozyme variant]”, the self-aminoacylation stood at 0.549 in data set [1]; 0.935 in data set [2]; 0.987 in data set [3]; 0.841 in data set [4]; 0.935 in data set [5]; 0.649 in data set [6].

Turning to “AUUCACCUGGGUCAUCUGGUG [Fam2.2 aminoacylation ribozyme variant]”, the self-aminoacylation in data set [1] was determined as 21; in data set [2], 2.18; in data set [3], 2.83; in data set [4] it was 2; in data set [5], 3.46; in data set [6], 2.99.

Regarding “CUUCAUCUAGGUCAUCGGGUG [Fam2.2 aminoacylation ribozyme variant]”, the self-aminoacylation in data set [1] was 38.8; in data set [2] it was 4.55; in data set [3], 6.52; in data set [4] it was 4.7; in data set [5], 7.99; in data set [6] it was 5.49.

“ACAGACUUCAAGCAAUCGGUC [Fam1B.1 aminoacylation ribozyme variant]”: the self-aminoacylation in data set [1] is 68.1; in data set [2] it was 2.39; in data set [3], 2.39; in data set [4], 2.27; in data set [5], 3.24; in data set [6], 38.2.

For the sequence “CCACACUUCAAGCAGUCGGUC [Fam1B.1 aminoacylation ribozyme variant]”, the self-aminoacylation in data set [1] was 1.1; in data set [2], 0.849; in data set [3], 0.724; in data set [4], 0.878; in data set [5], 0.783; in data set [6], 0.712.

Turning to “AAGUUUGCUGAUUGUCGCAAG [Fam3.1 aminoacylation ribozyme variant]”, the self-aminoacylation is 1.02 in data set [1]; 0.948 in data set [2]; 1.09 in data set [3]; 1.02 in data set [4]; 1.11 in data set [5]; 1.37 in data set [6].

Regarding “AUUCACCUACGACAUCGGGUG [Fam2.2 aminoacylation ribozyme variant]”, the self-aminoacylation in data set [1] was 24; in data set [2], 2.48; in data set [3], 3.87; in data set [4], 2.28; in data set [5] it was 5.12; in data set [6], 3.95.

As to “UUUCACCUAGGACAUCGGGUG [Fam2.2 aminoacylation ribozyme variant]”, the self-aminoacylation in data set [1] worked out at 26.8; in data set [2], 3; in data set [3], 3.39; in data set [4], 3.19; in data set [5], 3.31; in data set [6], 4.64.

As to “AUUCACCUAGGUCAUCCGGUA [Fam2.2 aminoacylation ribozyme variant]”, the self-aminoacylation in data set [1] worked out at 6.52; in data set [2], 2.36; in data set [3], 2.17; in data set [4] it was 2.3; in data set [5] it was 2.3; in data set [6] it was 1.87.

With “GUACUUCAAACAAUCGAUCUG [Fam1A.1 aminoacylation ribozyme variant]”, the self-aminoacylation in data set [1] was determined as 1.72; in data set [2] it was 1.18; in data set [3] it was 0.863; in data set [4] it was 0.987; in data set [5], 0.862; in data set [6] it was 1.64.

With “AUUCAUUUAGGUCAUCGGGUG [Fam2.2 aminoacylation ribozyme variant]”, the self-aminoacylation in data set [1] came to 45.6; in data set [2], 3.25; in data set [3], 5.48; in data set [4], 3.33; in data set [5], 6.72; in data set [6], 5.6.

Consider “CCACACUUGAAGCAAUCGUUC [Fam1B.1 aminoacylation ribozyme variant]”, for which the self-aminoacylation stood at 0.863 in data set [1]; 0.685 in data set [2]; 0.487 in data set [3]; 0.825 in data set [4]; 0.674 in data set [5]; 0.436 in data set [6].

As for “AUUACCCUGGUCAUUGGGUGA [Fam2.1 aminoacylation ribozyme variant]”, the self-aminoacylation was 93.4 in data set [1]; 5.58 in data set [2]; 12.1 in data set [3]; 5.6 in data set [4]; 13.1 in data set [5]; 12.9 in data set [6].

As to “AACUUUUCUAAUAGUCGCAAG [Fam3.1 aminoacylation ribozyme variant]”, the self-aminoacylation in data set [1] was 3.55; in data set [2], 1.97; in data set [3], 2.11; in data set [4], 1.71; in data set [5], 2.33; in data set [6], 2.05.

“UUUCGCCUAGGUCAUCGGGUG [Fam2.2 aminoacylation ribozyme variant]”: the self-aminoacylation is 44.1 in data set [1]; 5.36 in data set [2]; 6.25 in data set [3]; 5.33 in data set [4]; 7.49 in data set [5]; 7.75 in data set [6].

For the sequence “AAGGUUGCUAGUAGUCGCAAG [Fam3.1 aminoacylation ribozyme variant]”, the self-aminoacylation in data set [1] was found to be 1.77; in data set [2], 1.18; in data set [3], 1.3; in data set [4], 1.07; in data set [5] it was 0.971; in data set [6], 1.3.

On to “CUACUCCAAACAAUUGGUCUG [Fam1A.1 aminoacylation ribozyme variant]”, for which the self-aminoacylation in data set [1] amounted to 0.67; in data set [2], 1.13; in data set [3], 1.09; in data set [4] it was 1.03; in data set [5], 1.02; in data set [6], 0.642.

On to “AACGUUGCUAAUAGUCGCAAG [Fam3.1 aminoacylation ribozyme variant]”, for which the self-aminoacylation is 2.3 in data set [1]; 1.64 in data set [2]; 1.81 in data set [3]; 1.68 in data set [4]; 1.66 in data set [5]; 1.97 in data set [6].

Take “AUAGACCUAGGUCAUCGGGUG [Fam2.2 aminoacylation ribozyme variant]”: the self-aminoacylation is 19.5 in data set [1]; 2.59 in data set [2]; 2.93 in data set [3]; 2.65 in data set [4]; 3.85 in data set [5]; 4.2 in data set [6].

As to “CUACGUCAAACAGUCGGUCUG [Fam1A.1 aminoacylation ribozyme variant]”, the self-aminoacylation in data set [1] came to 3.92; in data set [2], 1.14; in data set [3] it was 1.25; in data set [4], 1.52; in data set [5], 1.75; in data set [6] it was 1.14.

Consider “AUCACGCUGGUCAUCGAGUGA [Fam2.1 aminoacylation ribozyme variant]”, for which the self-aminoacylation in data set [1] came to 33.1; in data set [2] it was 4.36; in data set [3], 6.1; in data set [4] it was 4.4; in data set [5], 5.91; in data set [6], 6.96.

(Values after the supplement of paper PMC9233669.)
